Test results as given in the Human Domainome abundance scans (Beltran et al. 2025).
± gives the uncertainty stated by the source.

B1: Dystrobrevin alpha, residues 235 to 294; numbered along this chain, Q9Y4J8 (parent)
chain: ENVFHPVECSYCHSESMMGFRYRCQQCHNYQLCQDCFWRGHAGGSHSNQHQMKEYTSWKS

Variants of: B1
Assay: abundance fitness (aPCA) (normalised: wild type 0, dead -1); higher = more abundant; growth selection in yeast, the domain comes from the species named
Conditions: Homo sapiens

Q: For ENVFHPVECSYCHSESMMGFRYRCQQCHNYQLCQDCFWRGHAGGSHSNQHQMKEYTVWKS [S57V], which abundance fitness is on record?
A: 0.005 ± 0.068

Q: With ENVFHPVECSYCHSESMMGFRYRCQQCHNYQLCQDCFWRGHAGGSHSNQHQMKEYTEWKS [S57E] as the variant, how does the abundance fitness read?
A: 0.058 ± 0.072

Q: For ENVFHPVECSYCHSESMMGFRYRCQQCHNYQLCQDCFWRGHAGGSHSNQHQMKEYTWWKS [S57W], which abundance fitness is on record?
A: -0.192 ± 0.089

Q: For ENVFHPVECSYCHSESMMGFRYRCQQCHNYQLCQDCFWRGHAGGSHSNQHQMKEYTLWKS [S57L], which abundance fitness is on record?
A: -0.165 ± 0.056

Q: Which abundance fitness does the source give for ENVFHPVECSYCHSESMMGFRYRCQQCHNYQLCQDCFWRGHAGGSHSNQHQMKEYTTWKS [S57T] here?
A: 0.008 ± 0.064

Q: With ENVFHPVECSYCHSESMMGFRYRCQQCHNYQLCQDCFWRGHAGGSHSNQHQMKEYTMWKS [S57M] as the variant, how does the abundance fitness read?
A: 0.036 ± 0.081

Q: With ENVFHPVECSYCHSESMMGFRYRCQQCHNYQLCQDCFWRGHAGGSHSNQHQMKEYTNWKS [S57N] as the variant, how does the abundance fitness read?
A: -0.291 ± 0.12

Q: With ENVFHPVECSYCHSESMMGFRYRCQQCHNYQLCQDCFWRGHAGGSHSNQHQMKEYTRWKS [S57R] as the variant, how does the abundance fitness read?
A: -0.152 ± 0.056

Q: With ENVFHPVECSYCHSESMMGFRYRCQQCHNYQLCQDCFWRGHAGGSHSNQHQMKEYTAWKS [S57A] as the variant, how does the abundance fitness read?
A: 0.085 ± 0.064

Q: For ENVFHPVECSYCHSESMMGFRYRCQQCHNYQLCQDCFWRGHAGGSHSNQHQMKEYTDWKS [S57D], which abundance fitness is on record?
A: 0.071 ± 0.12

Q: For ENVFHPVECSYCHSESMMGFRYRCQQCHNYQLCQDCFWRGHAGGSHSNQHQMKEYTQWKS [S57Q], which abundance fitness is on record?
A: -0.059 ± 0.089

Q: Which abundance fitness does the source give for ENVFHPVECSYCHSESMMGFRYRCQQCHNYQLCQDCFWRGHAGGSHSNQHQMKEYTIWKS [S57I] here?
A: -0.11 ± 0.11

Q: With ENVFHPVECSYCHSESMMGFRYRCQQCHNYQLCQDCFWRGHAGGSHSNQHQMKEYTGWKS [S57G] as the variant, how does the abundance fitness read?
A: -0.044 ± 0.08

Q: For ENVFHPVECSYCHSESMMGFRYRCQQCHNYQLCQDCFWRGHAGGSHSNQHQMKEYTYWKS [S57Y], which abundance fitness is on record?
A: -0.395 ± 0.13

Q: Which abundance fitness does the source give for ENVFHPVECSYCHSESMMGFRYRCQQCHNYQLCQDCFWRGHAGGSHSNQHQMKEYTKWKS [S57K] here?
A: -0.019 ± 0.069

Q: Which abundance fitness does the source give for ENVFHPVECSYCHSESMMGFRYRCQQCHNYQLCQDCFWRGHAGGSHSNQHQMKEYTHWKS [S57H] here?
A: 0.124 ± 0.08

Q: For ENVFHPVECSYCHSESMMGFRYRCQQCHNYQLCQDCFWRGHAGGSHSNQHQMKEYTPWKS [S57P], which abundance fitness is on record?
A: 0.171 ± 0.077

Q: Which abundance fitness does the source give for ENVFHPVECSYCHSESMMGFRYRCQQCHNYQLCQDCFWRGHAGGSHSNQHQMKEYTCWKS [S57C] here?
A: 0.074 ± 0.065

Q: With ENVFHPVECSYCHSESMMGFRYRCQQCHNYQLCQDCFWRGHAGGSHSNQHQMKEYTFWKS [S57F] as the variant, how does the abundance fitness read?
A: -0.391 ± 0.085

Q: With ENVFHPVECSYCHSESMMGFRYRCQQCHNYQLCQDCFWRGHAGGSHSNQHQMKERTSWKS [Y55R] as the variant, how does the abundance fitness read?
A: -0.11 ± 0.066

Q: For ENVFHPVECSYCHSESMMGFRYRCQQCHNYQLCQDCFWRGHAGGSHSNQHQMKECTSWKS [Y55C], which abundance fitness is on record?
A: 0.209 ± 0.085

Q: For ENVFHPVECSYCHSESMMGFRYRCQQCHNYQLCQDCFWRGHAGGSHSNQHQMKEFTSWKS [Y55F], which abundance fitness is on record?
A: -0.155 ± 0.098

Q: For ENVFHPVECSYCHSESMMGFRYRCQQCHNYQLCQDCFWRGHAGGSHSNQHQMKEHTSWKS [Y55H], which abundance fitness is on record?
A: -0.134 ± 0.27

Q: For ENVFHPVECSYCHSESMMGFRYRCQQCHNYQLCQDCFWRGHAGGSHSNQHQMKETTSWKS [Y55T], which abundance fitness is on record?
A: 0.104 ± 0.095

Q: Which abundance fitness does the source give for ENVFHPVECSYCHSESMMGFRYRCQQCHNYQLCQDCFWRGHAGGSHSNQHQMKEATSWKS [Y55A] here?
A: -0.064 ± 0.079

Q: With ENVFHPVECSYCHSESMMGFRYRCQQCHNYQLCQDCFWRGHAGGSHSNQHQMKEKTSWKS [Y55K] as the variant, how does the abundance fitness read?
A: -0.609 ± 0.23

Q: With ENVFHPVECSYCHSESMMGFRYRCQQCHNYQLCQDCFWRGHAGGSHSNQHQMKEPTSWKS [Y55P] as the variant, how does the abundance fitness read?
A: -0.078 ± 0.12

Q: For ENVFHPVECSYCHSESMMGFRYRCQQCHNYQLCQDCFWRGHAGGSHSNQHQMKEDTSWKS [Y55D], which abundance fitness is on record?
A: 0.243 ± 0.093

Q: Which abundance fitness does the source give for ENVFHPVECSYCHSESMMGFRYRCQQCHNYQLCQDCFWRGHAGGSHSNQHQMKELTSWKS [Y55L] here?
A: 0.06 ± 0.075

Q: With ENVFHPVECSYCHSESMMGFRYRCQQCHNYQLCQDCFWRGHAGGSHSNQHQMKESTSWKS [Y55S] as the variant, how does the abundance fitness read?
A: 0.245 ± 0.058

Q: With ENVFHPVECSYCHSESMMGFRYRCQQCHNYQLCQDCFWRGHAGGSHSNQHQMKEVTSWKS [Y55V] as the variant, how does the abundance fitness read?
A: 0.238 ± 0.068

Q: For ENVFHPVECSYCHSESMMGFRYRCQQCHNYQLCQDCFWRGHAGGSHSNQHQMKEETSWKS [Y55E], which abundance fitness is on record?
A: 0.117 ± 0.1

Q: For ENVFHPVECSYCHSESMMGFRYRCQQCHNYQLCQDCFWRGHAGGSHSNQHQMKENTSWKS [Y55N], which abundance fitness is on record?
A: -0.144 ± 0.19

Q: Which abundance fitness does the source give for ENVFHPVECSYCHSESMMGFRYRCQQCHNYQLCQDCFWRGHAGGSHSNQHQMKEITSWKS [Y55I] here?
A: -0.066 ± 0.1

Q: Which abundance fitness does the source give for ENVFHPVECSYCHSESMMGFRYRCQQCHNYQLCQDCFWRGHAGGSHSNQHQMKEQTSWKS [Y55Q] here?
A: -0.071 ± 0.086

Q: Which abundance fitness does the source give for ENVFHPVECSYCHSESMMGFRYRCQQCHNYQLCQDCFWRGHAGGSHSNQHQMKEWTSWKS [Y55W] here?
A: 0.06 ± 0.04

Q: Which abundance fitness does the source give for ENVFHPVECSYCHSESMMGFRYRCQQCHNYQLCQDCFWRGHAGGSHSNQHQMKEYMSWKS [T56M] here?
A: -0.151 ± 0.12

Q: With ENVFHPVECSYCHSESMMGFRYRCQQCHNYQLCQDCFWRGHAGGSHSNQHQMKEYWSWKS [T56W] as the variant, how does the abundance fitness read?
A: -0.605 ± 0.093

Q: With ENVFHPVECSYCHSESMMGFRYRCQQCHNYQLCQDCFWRGHAGGSHSNQHQMKEYLSWKS [T56L] as the variant, how does the abundance fitness read?
A: -0.462 ± 0.064

Q: With ENVFHPVECSYCHSESMMGFRYRCQQCHNYQLCQDCFWRGHAGGSHSNQHQMKEYSSWKS [T56S] as the variant, how does the abundance fitness read?
A: 0.104 ± 0.057

Q: With ENVFHPVECSYCHSESMMGFRYRCQQCHNYQLCQDCFWRGHAGGSHSNQHQMKEYKSWKS [T56K] as the variant, how does the abundance fitness read?
A: 0.066 ± 0.1

Q: With ENVFHPVECSYCHSESMMGFRYRCQQCHNYQLCQDCFWRGHAGGSHSNQHQMKEYPSWKS [T56P] as the variant, how does the abundance fitness read?
A: 0.126 ± 0.059

Q: For ENVFHPVECSYCHSESMMGFRYRCQQCHNYQLCQDCFWRGHAGGSHSNQHQMKEYRSWKS [T56R], which abundance fitness is on record?
A: -0.061 ± 0.044

Q: Which abundance fitness does the source give for ENVFHPVECSYCHSESMMGFRYRCQQCHNYQLCQDCFWRGHAGGSHSNQHQMKEYQSWKS [T56Q] here?
A: 0.044 ± 0.09
